According to PMC8857470, “Molecular insights into the maturation of phosphodiesterase 6 by the specialized chaperone complex of HSP90 with AIPL1” (The Journal of Biological Chemistry, 2022):
“And” between values parts separate entries of the source, which are not always exact repeats. Equal values may be shown once.

Assays:
Conditions in all cases: both partners purified
[1] = biological target: T1, Avi-tagged HSP90β (full-length human HSP90β, residues 1–724) (human, UniProt P08238 1-724, biotin (in vivo biotinylation, N-terminally biotinylated)); experiment: BLI; apo HSP90: biotinylated Avi-tagged HSP90β on streptavidin sensors, AIPL1 in solution; Octet RED96, 26 °C, 25 mM Tris, 200 mM NaCl, 2.5% glycerol, 1 mM TCEP, 0.5 mg/ml BSA, pH 7.5; 1:1 kinetic fit (KD = koff/kon) and steady-state fit
T1 construct: HSP90β, human, residues 1-724, cDNA isolated from HEK293T cells; Modified pET21a vector: N-terminal His6-tag, then the Avi tag, then a TEV cleavage site; Used apo (open state) or after incubation with AMPPNP (closed state); the two states are told apart by the assay; Host surmised to be E. coli; also called His6-Avi-tagged HSP90β; N-terminally biotinylated hHSP90B; source: cells grown in TB media …
T1 sequence (P08238 whole entry, the tested form may be a part): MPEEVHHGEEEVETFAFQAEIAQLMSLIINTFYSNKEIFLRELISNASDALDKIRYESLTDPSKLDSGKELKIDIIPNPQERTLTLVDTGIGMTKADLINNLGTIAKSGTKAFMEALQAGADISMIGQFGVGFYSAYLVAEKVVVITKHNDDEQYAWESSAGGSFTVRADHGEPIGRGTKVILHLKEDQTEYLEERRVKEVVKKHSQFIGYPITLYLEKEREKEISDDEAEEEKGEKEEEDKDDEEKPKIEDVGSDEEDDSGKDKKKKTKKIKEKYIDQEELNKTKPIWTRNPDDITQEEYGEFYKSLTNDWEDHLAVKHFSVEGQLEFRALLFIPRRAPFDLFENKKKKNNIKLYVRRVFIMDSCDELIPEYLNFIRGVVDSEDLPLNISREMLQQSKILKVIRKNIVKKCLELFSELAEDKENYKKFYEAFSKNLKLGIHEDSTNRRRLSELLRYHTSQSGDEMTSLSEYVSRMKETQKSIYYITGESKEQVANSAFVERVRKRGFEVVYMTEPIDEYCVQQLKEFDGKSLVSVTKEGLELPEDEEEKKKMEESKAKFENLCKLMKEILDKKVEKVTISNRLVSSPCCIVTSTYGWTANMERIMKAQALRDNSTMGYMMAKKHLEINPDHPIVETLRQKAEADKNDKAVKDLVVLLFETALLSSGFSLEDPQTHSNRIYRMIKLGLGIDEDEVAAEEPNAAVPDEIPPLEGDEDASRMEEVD

[2] = biological target: T1, Avi-tagged HSP90β (full-length human …); experiment: BLI; HSP90_(AMPPNP) (closed state): biotinylated Avi-tagged HSP90β on streptavidin sensors, AIPL1 or mutants in solution; Octet RED96, 26 °C, 25 mM Tris, 200 mM NaCl, 2.5% glycerol, 1 mM TCEP, 0.5 mg/ml BSA, pH 7.5; 1:1 kinetic fit (KD = koff/kon) and steady-state fit
[3] = biological target: T2, full-length human HSP90β (residues 1–724), pET15b construct (human, UniProt P08238 1-724); experiment: cross-linking + other: mass photometry; DSS (0.5 mM) or glutaraldehyde (0.03%) added to HSP90β (15 μM), AIPL1 (25 μM) or their mixture (HSP90_(AMPPNP)/AIPL1), 15 to 30 min at 25 °C, 25 mM Hepes pH 7.5, 200 mM NaCl, 5% glycerol, 1 mM TCEP; products on 3 to 8% Tris-acetate gel and by mass photometry
T2 construct: HSP90β, human, residues 1-724, cDNA isolated from HEK293T cells; Cloned into pET15b through Nco1-Nde1 sites; Host surmised to be E. coli; also called apo HSP90; HSP90_(AMPPNP); source: purified by SEC
T2 sequence (P08238 whole entry, the tested form may be a part): as above

Row | Kd [1] | koff [1] [s⁻¹] | kon [1] [M⁻¹ s⁻¹] | Kd [2] [µM] | koff [2] [s⁻¹] | kon [2] [M⁻¹ s⁻¹] | stoichiometry N [3] | binding result [2] | Binder
1 | ~17 µM and 32 µM and 33 µM | 1.2 | 71000 | 4.8 | 0.32 | 150000 | 0.5 AIPL1 per HSP90 chain (1:2) |  | full-length mouse AIPL1 (aa 1–328) (natural protein, UniProt Q924K1 1-328, looked up, also called wt AIPL1; source: E. coli BL21-(DE3), purified (Ni-NTA, Mono Q5, SEC)) MDVSLLLNVEGVKKTILHGGTGELPSFITGSRVTFHFRTMKCDDERTVIDDSKQVGQPMSIIIGNMFKLEVWETLLTSMRLGEVAEFWCDTIHTGVYPMLSRSLRQVAEGKDPTSWHVHTCGLANMFAYHTLGYEDLDELQKEPQPLVFLIELLQVEAPNEYQRETWNLNNEERMQAVPLLHGEGNRLYKLGRYDQAATKYQEAIVCLRNLQTKEKPWEVEWLKLEKMINTLILNYCQCLLKKEEYYEVLEHTSDILRHHPGIVKAYYMRARAHAEVWNAEEAKADLEKVLELEPSMRKAVLRELRLLESRLADKQEEERQRCRSMLG
2 |  |  |  |  |  |  |  | binds | AIPL1-Δα3 (Δ111–132) (natural protein, mouse, AIPL1, mouse, residues before the replaced stretch 111-132; five glycine residues that replace residues 111 to 132 of AIPL1 (told in words); AIPL1, mouse, residues after the replaced stretch 111-132, to the end of the full-length protein (aa 328); also called AIPL1-Δα3 (loop deletion); α3-helix deletion; source: E. coli BL21-(DE3), purified (Ni-NTA, Mono Q5, SEC)) MDVSLLLNVEGVKKTILHGGTGELPSFITGSRVTFHFRTMKCDDERTVIDDSKQVGQPMSIIIGNMFKLEVWETLLTSMRLGEVAEFWCDTIHTGVYPMLSRSLRQVAEGGGGGGGYEDLDELQKEPQPLVFLIELLQVEAPNEYQRETWNLNNEERMQAVPLLHGEGNRLYKLGRYDQAATKYQEAIVCLRNLQTKEKPWEVEWLKLEKMINTLILNYCQCLLKKEEYYEVLEHTSDILRHHPGIVKAYYMRARAHAEVWNAEEAKADLEKVLELEPSMRKAVLRELRLLESRLADKQEEERQRCRSMLG
3 |  |  |  | 27 |  |  |  |  | AIPL1_(1–316) (domain or fragment, mouse, UniProt Q924K1 1-316, looked up, source: E. coli BL21-(DE3), purified (Ni-NTA, Mono Q5, SEC)) MDVSLLLNVEGVKKTILHGGTGELPSFITGSRVTFHFRTMKCDDERTVIDDSKQVGQPMSIIIGNMFKLEVWETLLTSMRLGEVAEFWCDTIHTGVYPMLSRSLRQVAEGKDPTSWHVHTCGLANMFAYHTLGYEDLDELQKEPQPLVFLIELLQVEAPNEYQRETWNLNNEERMQAVPLLHGEGNRLYKLGRYDQAATKYQEAIVCLRNLQTKEKPWEVEWLKLEKMINTLILNYCQCLLKKEEYYEVLEHTSDILRHHPGIVKAYYMRARAHAEVWNAEEAKADLEKVLELEPSMRKAVLRELRLLESRLADKQ
